In the DeepSol protein solubility set:

Assay: soluble on expression in E. coli; label from the status in PepcDB or PDB records
With “MAEPLQPDPGAAEDAAAQAVETPGWKAPEDAGPQPGSYEIRHYGPAKWVSTSVESMDWDSAIQTGFTKLNSYIQGKNEKEMKIKMTAPVTSYVEPGSGPFSESTITISLYIPSEQQFDPPRPLESDVFIEDRAEMTVFVRSFDGFSSAQKNQEQLLTLASILREDGKVFDEKVYYTAGYNSPVKLLNRNNEVWLIQKNEPTKENE” the “soluble on expression in E. coli” value was “soluble”. For “MVTVPDAIKGSSPTPQQDLVRVMSAPQLYVGQEARFGGKVVAVQNQQGKTRLEIATVPLDSGARPTLGEPSRGRIYADVNGFLDPVDFRGQLVTVVGPITGAVDGKIGNTPYKFMVMQVTGYKRWHLTQQVIMPPQPIDPWFYGGRGWPYGYGGWGWYNPGPARVQTVVTELEHHHHHH”, the “soluble on expression in E. coli” value was “soluble”. With “SASFVGTPLPESENISLYQSRVTVAELEMLASRFVGRTRVKVAFQAYWSQQREELLPNQQAPSSLIRHTERVLAGVFGASSAKLVLTSALQGRNMQLEEVATIVDEAS” the “soluble on expression in E. coli” value was “not soluble”. With “MAEQRWTGQLDLTVFNNGQSSKARNIFFEKALKVLRPIYLEQSPVPTFYIVNVGGGYLDGDRYRVNVNLEDNAQVTLTSQGATKIYKTPNDHVEQYQTFNLSNQSYMEFVADPIIAYENAKFFQHNTFNLKEDSAMFYTDILTPGYSSNGQDFTYNYMHLINEIYIDNQLVVFDNMMLSPDKSRLDGIGYMENYTHLGSAYFIHPDVNQSFIDDIYAAVADFQKQYDCRIGISQLPTHGLAVRILTKRTQIIEEILTRVQSYINQTIYHRQINFLRKYLEHHHHHH” the “soluble on expression in E. coli” value was “not soluble”. With “IEERMNEYFNWLKQNYIFKELDSSTEITTPFKNHLNDFIRIYADTLPNNEICLSDDGLTINELEMLGIDINTKTRTKLIQNILNQFNLKLVDKEITADVKNESFAQSKHNLIQGILKIYDLTLTTKSNVTNIFYEEVFEFLYDQKIRGLAQVSVSGESGLKYSIDYIVSETKSQPEKLVNFTNNLDFNKITNEAYIYRDIKPNRPSRNKLEPIMLIIVNDVDHPINERAQTVAEHENLEILKWSNKSKIIETL” the “soluble on expression in E. coli” value was “not soluble”. With “MGHHHHHHMLENIRDAVRKFLTGSTPYEKAVDEFIKDLQKSLISSDVNVKLVFSLTAKIKERLNKEKPPSVLERKEWFISIVYDELSKLFGGDKEPNVNPTKLPFIIMLVGVQGSGKTTTAGKLAYFYKKRGYKVGLVAADVYRPAAYDQLLQLGNQIGVQVYGEPNNQNPIEIAKKGVDIFVKNKMDIIIVDTAGRHGYGEETKLLEEMKEMYDVLKPDDVILVIDASIGQKAYDLASRFHQASPIGSVIITKMDGTAKGGGALSAVVATGATIKFIGTGEKIDELETFNAKRFVSRILGMGDIESILEKVKGLEEYDKIQKKMEDVMEGKGKLTLRDVYAQIIALRKMGPLSKVLQHIPGLGIMLPTPSEDQLKIGEEKIRRWLAALNSMTYKELENPNIIDKSRMRRIAEGSGLEVEEVRELLEWYNNMNRLLKMVK” the “soluble on expression in E. coli” value was “soluble”. For “MGSDKIHHHHHHMPFRRPCAINRPPLTSGCQGHPLSSRRAAQGPGGFFYRHKDMAMTQKRALGLDFGTTNTVMALSDTGSASHSMRFTSSAGTDDSMRTALSFMKDAGLGAAALHVEAGQAAIRQFIDNAGDCRFLQSIKTFAASPLFQGTLIFAKRQSFEDLMEVFLRKLKTYAGSEWPGDVSTVIAGRPVRFAGSNPDETLALARYNEALTRAGFPEIHYVYEPVAAAYYFAQSLKKDANVLVADFGGGTTDYSLIRFETHAGKLSATPIGHSGVGVAGDHFDFRMIDNLVSPEIGKGSKFKSFDKVLDVPSGYYVNFGRWNQLSIFKTSKEFTDLKSLVRSALEPDKLELFIDLVEHDEGYPLYQAISATKMALSSAQEAEFNFSPLGKAGRKMVKRSDFNNWIADDLAKIEGALDEVLEKTKVAPEAIDKVFLTGGTSFVPAVRELFTRRFDADRIESGGELLSIAHGLAMIGESGDIQRWTA”, the “soluble on expression in E. coli” value was “not soluble”. For “MAEITEKVLKKPNAIPDVFERKGGSAPTATHYCAGCGHGIIHKLMAEAIDELEIQDRCVLISPVGCAVFAYYYFDCGNIQVAHGRAPAVGTGVSRAEDNAIVMSYQGDGDLASIGLNETIQAANRGEKMAVFFVNNTVYGMTGGQMAPTTLIGEKTVTCQTGRDPRFAGYPIHMCELLSSLKAPVFIERVSVSDIAHIRKAKRAIKKALEIQRDGKGYAFVEILSPCPTNLRQDANAAQKFINEEMEKEFPLQNFRDRSAEVETLNRGESDFSKECLDNIFEVNSKGAEDPSEDLSFE”, the “soluble on expression in E. coli” value was “not soluble”. For “GQSAKEAIEAANADFVKAYNSKDAAGVASKYMDDAAAFPPDMARVDGRQNIQKLWQGAMDMGISELKLTTLDVQESGDFAFESGSFSLKAPGKDSKLVDAAGKYVVVWRKGQDGGWKLYRDIWNSDPAK”, the “soluble on expression in E. coli” value was “soluble”. With “MKIAFIGEAVSGFGGMETVISNVIHTFENSSPKINCEMFFFCRNDKMDKAWLKEIKYAQSFSNIKLSFLRRAKHVYNFSQWLKETSPDIVICIDVISCLYANKARKKSGKHFTIFSWPHFSLDHKKHAECITYADYHLAISSGIKEQIMARGISAQDISVVYNPVSIKTVIVPPPERDKPAVFLYVGRLKFEGQKRVKDLFDGLARTTGEWQLHIIGDGSDFEKCQAYSRELGIEQRVIWYGWQSAPWQVVQQKIKNVTALLLTSAFEGFPMTLLEAMSYGIPCISSDCMSGPRDMIKPGLNGELYTPGAIDDFVGHLNRVISGEVKYQHDIIPGTIERFYDVLYFKNFNNAIFSKLQK” the “soluble on expression in E. coli” value was “not soluble”. With “MRIEVRLFALYREQAGTDRLALELPEGARVREAQKALEERFPRLRLEGGMAAVNQALAGAETPLKEGDEVAFLPPVSGGQDSYGLTQEPLDLEALVAWATAPEYGAVVSFLGTTRSPNRGEEVAFLEYEAYPEMAEKVMAEILAEMRARWPLGRIALWHRLGRVDPGEASIAIVVSARHRKEAFAACQYAIDRVKQILPVWKKEHRKDGSFWVEGFAPEDKRL” the “soluble on expression in E. coli” value was “soluble”. For “SNAFHPVYSVQLEQKLVEKFNLKRALISLDQPNTNEQRKQVAALVSSYLNNNLQEGMAVAVGQGQNVAAVADHAGIVTQRNARFVSAIGGTHRSGDIINADHICRRLAKKYGGSSETLYAPAYVNDPSLRSAFMEHATIKETLSQARKAEFALVGIGDMDENSHMVKLGFFTPKEFVEARLNDGIVGDIGGFDFFKLDGTDADTLMRGRVIGLEMEDLRQIPNVVAMASESRKALSIMGALRTGVIDVLATSVSCAMALLNLAENEE”, the “soluble on expression in E. coli” value was “soluble”. In the case of “MHMSEANHKNIVVVGAGIIGTSVATMLSKVSPNWHIDMFERLEGAGIESSNENNNAGTGHAALCELNYTVEQDDGSIDASKAQEINEQFELSRQFWGNLVKNGDISNPEEFIQPLPHISFVMGPTNVNFLRKRYETLKTLPMFDTIEYTEDMETMRKWMPLMMENREPGHQMAASKIDEGTDVNYGALTRKLAHYLEQKSNVSLKYNHDVVDLTQREDGKWEVVVENRETKEKVTKIADKVFIGAGGHSIPLLQKSGVKQREHLGGFPISGQFLRCTNPDIIKQHAAKVYSKEPQGKPPMTVPHLDTRYINGKQTLLFGPYANIGPKFLKFGSNLDLFESIKPYNITTMLASAVKNVPLIKYSIDQMIKTKEGCMNYLRTFIPDAKDEDWELYTAGKRVQVIKDSEQHGKGFVVFGTEVVNSDDNSMIALLGESPGASTSLSVVLEVLEKNFADDKEAWEPVVKEMVPTYGRSLINDEKLMRETRRETSKNLHLNRMAGDPLEHHHHHH”, the “soluble on expression in E. coli” value is reported as “soluble”. For “MGSSHHHHHHSSGLVPRGSHMSVRSLPAALRACARLQPHDPAFTFMDYEQDWDGVAITLTWSQLYRRTLNVAQELSRCGSTGDRVVISAPQGLEYVVAFLGALQAGRIAVPLSVPQGGVTDERSDSVLSDSSPVAILTTSSAVDDVVQHVARRPGESPPSIIEVDLLDLDAPNGYTFKEDEYPSTAYLQYTSGSTRTPAGVVMSHQNVRVNFEQLMSGYFADTDGIPPPNSALVSWLPFYHDMGLVIGICAPILGGYPAVLTSPVSFLQRPARWMHLMASDFHAFSAAPNFAFELAARRTTDDDMAGRDLGNILTILSGSERVQAATIKRFADRFARFNLQERVIRPSYGLAEATVYVATSKPGQPPETVDFDTESLSAGHAKPCAGGGATSLISYMLPRSPIVRIVDSDTCIECPDGTVGEIWVHGDNVANGYWQKPDESERTFGGKIVTPSPGTPEGPWLRTGDSGFVTDGKMFIIGR”, the “soluble on expression in E. coli” value was “soluble”. With “MGSDKIHHHHHHMGGIGLRRLGCGEAIQIGGDTRAGPVVQIESADHVQSGGDGKGLDTPSIGPDPKRVAVIGHHHVEGAIGVPVQIGKGLSGVHGIGMIQGFEYQFAARPLARRRAQRSDAVENGRHDAGIVDTQPGPPRQLVQPGHHFGAVVPPTARTIPGPGVHLVAIGGDDQRPLVARAAKQNKSAHSQKSVSSGLSARYNTTCVHRFHPVGAKHRKGYGTRLIMTAFDDREKAFEAKYRLDQEQEFKARIRRDKLLGLWAAEQMGISGDAAKTYALSVVDVEFDATDRDAGHKIVRDFIASGITLDEAAIRHQMAVLLEIAREQIVTEMGRP” the “soluble on expression in E. coli” value was “not soluble”. In the case of “MGHHHHHHSHMPSLNLFPSVSDSGFWTGGTALRNPPSRPPYLSIAMTTLVSLATDLKYGSTLLGRIKTVLDASVAQLTVADVTTEDIVNFLNSLNGIDHELFSFIRTYPVFFVLHLCTLDRTQTYTSGQVIKTIKHLITTFREVLCEDMGADNDSIISNSNILKDCSWYLTKLETEQMSTSIPHLPKSCITFPCMEQVHHLVHNATLATLPNSWTSPLPSLNSVYVQWFVLSYKHKVFPDEVPSSNIQDLADKMTNIYKHLFVPHTSQLTGASIILARSLDILSQFTPLEKIPSNSPAVAFGDDELSNIPSNCHLMFGHLIESIYMGMTYACTLGAVEQFIREAFDVVLGVASEIKRTASLSDLPTVTKLVNIKRILIEHGLSETRCEEYAQALPKWQHREGIYPFEETLDHFHQKLSTLIKFCLEFYNTLMLVSPTSISHSYLKENNYLLQLDRKSAASQGQGPDDINLLEKVFTFVYPQVPGQDLQRIHDAIDSDIMRTLFFSWVNRNWGIVLITQNPLMEPSCEHQVSEERVAAYCKRMPVGDLSYEPAMVSHKMFYKYFIRHIVGPTIQGIFSRKTSRNRALFQIRWLLSFAITDTPQLQEIRRPLGMFYFELLDIINGTNKPSAMKNLLDHALDLKKKINKINQTFSIPQDLILYLFVLDTGASYINSVDYITAIIPKVEHLLLRGRNILRLGSILCHTKYNYHPLTHQFTILSSSGQILEVHLETLKSLISQVEKDHSQLLMEITDLEGELRGEYSTVLSLLQDLEAYKQHELGIEFDTEPWNQLKQSFSGILSRISSGLSLLSKGCSSCLRKRFHDLFSQEIITPTILKAASAGNVEIIKNLKEIPVNLMAPPTDTSMTQAGGNPTDEDLTMLYSTYPQIFSQNAARGEKHPPQLKKYSSTYDRIPLDVNWQIFTQQTYTAEHAECPYTIVKIHDIIKLLS”, the “soluble on expression in E. coli” value is reported as “not soluble”. For “LCPDPDDDEGLIVSDSDGMIVDVTEPLPRVTGYSKSELLGMETAALFWLRDGDNHSGHTRAPVSETEGRSHGLLECADGSRITVEQRSYTVRPEAETHVCTTVLFPGDGE”, the “soluble on expression in E. coli” value was “not soluble”. For “MGSDKIHHHHHHMTHRRSKSVKIYLVGGAVRDSLLNLPIKDKDYMVVGATPEQMLQLGYRQVGKDFPVFLHPITQQEYALARTERKVGLGYGGFSCYASPDVTLEQDLLRRDLTINAIAQDEEGNLHDPFNGIGDLNARLLRHVSDAFIEDPLRVLRVARFAARFHHLGFQIADSTLQLMQQIAQSGELNALTPERVWQEVDKTLSGSNPEVFFEVLRQCGALKVLFPELDALFGIPQPEKWHPEIDTGLHTLMVLAQAAILTQDKAVRFAALVHDLGKAITPIEHLPKHHGHGQKGLPIIKALCERLRIPNEFRDLALIVSDQHQNVHQAFKLRPETIIKIFDKADFWRKPERLKQLVQACIADMRGRTGFEHQDYPQGEYFSQCFAVASNVNIKAIIQAGFKGEEIKQILHMHRIDAVGQLKRDKQNAVD”, the “soluble on expression in E. coli” value was “not soluble”. For “QSKTATVFLHGYNGGAYSTNYLIRKAEKAGAAQKALVVHVYKNGVMAFKGYWQKSIKNPMVQVVFQDNHASQKAQIYWLHQVLVQLKAKYGVKAYNAVGHSLGANDIVNQALKYGHDKRLPTLNKIVTIGGPFDGLTGFLSTQTEATVRRLDVKPSRFTKHFSEMLKYRHNFPDNVKLLNVYGDTNTGYNNDGFVGVASARSIRYLLRGKLTQYQEAFYSGEQAAHCALNQNPSVAHKMIAFLW”, the “soluble on expression in E. coli” value was “not soluble”.
